The values below come from patent publication US7855167.

Experiment [1] addresses WinZip-B1-DHFR[2:I114A] (murine) (UniProt P00375). The experiment is described as follows: cell-based or functional assay.
Experiment [2] has as its target WinZip-B2-DHFR[2:I114A] (murine) (UniProt P00375). The experiment can be described thus: cell-based or functional assay.

As to “WinZip-A1-DHFR[1] (from UniProt P00375 1-107) (designed binder)”, in experiment [1], the Frequency of dominant Pair at P12 was determined as 82%, the Selection factor (competition selection) was 3.2e+06 and the frequency of the pair among sequenced colonies at P10 was 33%. In experiment [2], this substance yielded a Frequency of dominant Pair at P12 of 67%, a Selection factor (competition selection) of 87000 and a frequency of the pair among sequenced colonies at P10 (fraction (3/5)) of 0.6.
